Holding throughout (experiment): MST
Settings in all cases: 50 nM RED-NHS labeled PdtaR, RNA up to 10 uM, autophosphorylation buffer (composition and pH not in material) with 0.025% Tween-20, 50 uM ATP …

The subject of data set [1] is PdtaR (unphosphorylated) (Mycobacterium tuberculosis Erdman (ATCC 35801)).
In data set [2] the test system is PdtaR~P (phosphorylated by PdtaS) (Mycobacterium tuberculosis Erdman (ATCC 35801)).
In data set [3] the target is T1, PdtaR (unphosphorylated) (Mycobacterium tuberculosis Erdman (ATCC 35801)) (UniProt P9WGM3).
T1 sequence: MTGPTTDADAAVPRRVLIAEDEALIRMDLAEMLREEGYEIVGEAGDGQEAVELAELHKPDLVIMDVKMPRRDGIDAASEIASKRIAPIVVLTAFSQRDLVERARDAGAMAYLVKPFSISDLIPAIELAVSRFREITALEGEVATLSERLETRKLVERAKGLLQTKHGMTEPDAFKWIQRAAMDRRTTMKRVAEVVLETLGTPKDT

As to rv3864 RNA, the Kd in data set [1] is 2590 nM; in data set [2], 2120 nM.
In the same order, the values of PPE1-5' RNA are 1280 nM and 410 nM.
For the substance “GGCAAAAAAUUCGUGCACCAACCCCCCUCCGAGCGCUGCUAAGCUCAAUGUGCAGUGCAAAGGUGCAGAUAAUGAUGGCGCACCGGAACGGCGAGCGUAAGGAAA [rv3864 RNA]”, the Kd in data set [3] was 2590 nM.

One may read the Kd as the concentration at which binding is half-saturated.

The values above are taken from PMC8131098.
